Laboratory results as given in the supplement of paper PMC10126150.
± gives the standard deviation of the averaged measurements.

tested on: ATP; experiment: switch fluorescence ratio, 500 uM ATP over buffer (Cy3 cluster intensity, sum of 5 cycles each) (fold (ratio)); higher = stronger signal-on switching upon ATP binding; sequences stand for … in TCGTCGGCAGCGTCAGATGTGTATAAGAGACAGTTTTTTTTTTTTTTTTTTTTTTTTT…TC; settings: aptamer strand: ATP DNA aptamer (quencher-CACCTGGGGGAGTATTGCGGAGGAAGG + anchor), 100 nM annealed; ATP concentration: 500 uM
Summary of the method: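 After annealing to 100 nM quencher-labelled ATP aptamer, Cy3-labelled switching-strand clusters on a modified Illumina MiSeq flow-cell were imaged in selection buffer. A second image followed after 15 min with 500 uM ATP at 22 °C, and five such buffer/ATP cycles were done, each separated by NaOH stripping and re-annealing. The fluorescence ratio, averaged per switch-domain sequence, is summed target-cycle over summed buffer-cycle Cy3 intensity per cluster, with clusters outside 100-1000 RFU excluded.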
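Note: ATP exposure 15 min at 22 °C before imaging.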

Question: How did the switch fluorescence ratio turn out when TTGATATGGT was run?
Answer: 0.997 ± 0.022

Question: How did the switch fluorescence ratio turn out when TAATCGGGGG was run?
Answer: 1.04 ± 0.043

Question: Which switch fluorescence ratio does the source give for GAAATCATTA here?
Answer: 1.016 ± 0.01

Question: For TTCATTCATT, which switch fluorescence ratio is on record?
Answer: 0.982 ± 0.015

Question: How did the switch fluorescence ratio turn out when ATGCGGTCCT was run?
Answer: 1.02 ± 0.016

Question: With TCCATACAAG as the sequence, how does the switch fluorescence ratio read?
Answer: 0.983 ± 0.055

Question: Which switch fluorescence ratio does the source give for GCTTGTGAGG here?
Answer: 1.02 ± 0.022

Question: Which switch fluorescence ratio does the source give for TGCATTGGGA here?
Answer: 1.02 ± 0.043

Question: With TGTTGAAAAT as the sequence, how does the switch fluorescence ratio read?
Answer: 1.02 ± 0.048

Question: Which switch fluorescence ratio does the source give for CCATTAGGAG here?
Answer: 0.988 ± 0.012

Question: For CGGAGGCGTT, which switch fluorescence ratio is on record?
Answer: 0.986 ± 0.041

Question: Which switch fluorescence ratio does the source give for CCAGTTTCTG here?
Answer: 1.02 ± 0.012

Question: Which switch fluorescence ratio does the source give for TTTGCAGTTC here?
Answer: 1.3 ± 0.32

Question: For GAAGGGGGGT, which switch fluorescence ratio is on record?
Answer: 0.997 ± 0.029

Question: For GGGTGAAGGG, which switch fluorescence ratio is on record?
Answer: 0.974 ± 0.021

Question: How did the switch fluorescence ratio turn out when CATTTAGTGT was run?
Answer: 0.984 ± 0.012

Question: GATGTCACGA was tested. Which switch fluorescence ratio did it give?
Answer: 1.03 ± 0.028

Question: Which switch fluorescence ratio does the source give for AATTGTATAG here?
Answer: 0.9913 ± 0.0062

Question: CAGGTAGTGC was tested. Which switch fluorescence ratio did it give?
Answer: 1.04 ± 0.096

Question: For GGTAGTGTTT, which switch fluorescence ratio is on record?
Answer: 0.998 ± 0.035

Question: With AAAGGTTGAT as the sequence, how does the switch fluorescence ratio read?
Answer: 1.01 ± 0.011

Question: TATAGGCGGT was tested. Which switch fluorescence ratio did it give?
Answer: 1.12 ± 0.2

Question: Which switch fluorescence ratio does the source give for TTGGCGGTGG here?
Answer: 1.08 ± 0.26

Question: AGGTTGGGGT was tested. Which switch fluorescence ratio did it give?
Answer: 1.01 ± 0.036

Question: With AAGTTTGAAG as the sequence, how does the switch fluorescence ratio read?
Answer: 0.974 ± 0.01

Question: Which switch fluorescence ratio does the source give for ATTAGTAGAT here?
Answer: 0.97 ± 0.013

Question: With CGAGCAGTAG as the sequence, how does the switch fluorescence ratio read?
Answer: 3.57 ± 0.31

Question: With AGGCTCTTTG as the sequence, how does the switch fluorescence ratio read?
Answer: 1.01 ± 0.04

Question: Which switch fluorescence ratio does the source give for AAGAGTTGCC here?
Answer: 1.07 ± 0.12

Question: With ATGGGGCTGA as the sequence, how does the switch fluorescence ratio read?
Answer: 0.993 ± 0.029

Question: Which switch fluorescence ratio does the source give for GGATGATCTT here?
Answer: 0.972 ± 0.022

Question: With GTCGTATAGG as the sequence, how does the switch fluorescence ratio read?
Answer: 0.978 ± 0.023

Question: With CAGTGAATGA as the sequence, how does the switch fluorescence ratio read?
Answer: 1.03 ± 0.017

Question: How did the switch fluorescence ratio turn out when TCGCGGTTAT was run?
Answer: 1.06 ± 0.029

Question: How did the switch fluorescence ratio turn out when AGAGAATATT was run?
Answer: 1.03 ± 0.039

Question: GATATGCTGG was tested. Which switch fluorescence ratio did it give?
Answer: 0.987 ± 0.018

Question: How did the switch fluorescence ratio turn out when AGATGAGGCG was run?
Answer: 1 ± 0.068

Question: Which switch fluorescence ratio does the source give for AAAAAGGTGG here?
Answer: 1.06 ± 0.047

Question: AAAAATCTGG was tested. Which switch fluorescence ratio did it give?
Answer: 1.45 ± 0.67

Question: With ATTGAAAAGG as the sequence, how does the switch fluorescence ratio read?
Answer: 0.96 ± 0.028

Question: CGTTATTGGC was tested. Which switch fluorescence ratio did it give?
Answer: 1.02 ± 0.034

Question: How did the switch fluorescence ratio turn out when TGTTGCGCCG was run?
Answer: 0.929 ± 0.081

Question: With TAGGGGGGTC as the sequence, how does the switch fluorescence ratio read?
Answer: 1 ± 0.066

Question: Which switch fluorescence ratio does the source give for CGAGGGGGTA here?
Answer: 1.02 ± 0.077

Question: How did the switch fluorescence ratio turn out when ATCGGCGATT was run?
Answer: 1.04 ± 0.024

Question: CTTGGTAGTG was tested. Which switch fluorescence ratio did it give?
Answer: 0.959 ± 0.015

Question: TTCTTTGGGG was tested. Which switch fluorescence ratio did it give?
Answer: 1.04 ± 0.093

Question: Which switch fluorescence ratio does the source give for TCGTGGGGAG here?
Answer: 0.982 ± 0.015

Question: How did the switch fluorescence ratio turn out when CGGGGGGCTG was run?
Answer: 0.995 ± 0.04

Question: AGGGCTAATA was tested. Which switch fluorescence ratio did it give?
Answer: 1.009 ± 0.0081

Question: For GGGGCGTGTA, which switch fluorescence ratio is on record?
Answer: 0.977 ± 0.029

Question: With CCAGTATCTG as the sequence, how does the switch fluorescence ratio read?
Answer: 0.998 ± 0.013

Question: Which switch fluorescence ratio does the source give for CGGGGTTCCG here?
Answer: 0.9532 ± 0.0064

Question: GGGGATTTCA was tested. Which switch fluorescence ratio did it give?
Answer: 0.989 ± 0.024

Question: How did the switch fluorescence ratio turn out when TTCCTGCGCT was run?
Answer: 1.77 ± 1

Question: Which switch fluorescence ratio does the source give for CCTGTATTTT here?
Answer: 1.011 ± 0.0077

Question: With AGAGTCGAGG as the sequence, how does the switch fluorescence ratio read?
Answer: 0.968 ± 0.047

Question: For GCTTGCGGGA, which switch fluorescence ratio is on record?
Answer: 1.03 ± 0.019

Question: How did the switch fluorescence ratio turn out when ATAGTTGGGA was run?
Answer: 1.018 ± 0.0011

Question: GAAGTGTCGG was tested. Which switch fluorescence ratio did it give?
Answer: 1.005 ± 0.0057

Question: How did the switch fluorescence ratio turn out when ATTTCAAATT was run?
Answer: 1.02 ± 0.028

Question: With GGGATACCCT as the sequence, how does the switch fluorescence ratio read?
Answer: 0.9798 ± 0.00069

Question: Which switch fluorescence ratio does the source give for CTTTACACAG here?
Answer: 1.0006 ± 0.00047

Question: For GTTAGAAGGG, which switch fluorescence ratio is on record?
Answer: 0.978 ± 0.023

Question: How did the switch fluorescence ratio turn out when GATCATAATG was run?
Answer: 1.01 ± 0.021

Question: How did the switch fluorescence ratio turn out when TCCCCATGGT was run?
Answer: 2.07 ± 0.068

Question: How did the switch fluorescence ratio turn out when TGATTTGTTG was run?
Answer: 0.971 ± 0.011

Question: Which switch fluorescence ratio does the source give for AGTGGGAAGG here?
Answer: 0.956 ± 0.021

Question: TAATTTATCA was tested. Which switch fluorescence ratio did it give?
Answer: 1.01 ± 0.035

Question: Which switch fluorescence ratio does the source give for GTATGATTCG here?
Answer: 0.9843 ± 0.0051

Question: Which switch fluorescence ratio does the source give for ATCTGCCTTG here?
Answer: 1 ± 0.019

Question: How did the switch fluorescence ratio turn out when ACACTTGTTG was run?
Answer: 0.963 ± 0.028

Question: CTGGTGGGAG was tested. Which switch fluorescence ratio did it give?
Answer: 0.9857 ± 0.0067

Question: How did the switch fluorescence ratio turn out when TGTTGAGTTG was run?
Answer: 0.9749 ± 0.0031

Question: GGTTGCGCTT was tested. Which switch fluorescence ratio did it give?
Answer: 1.29 ± 0.39

Question: How did the switch fluorescence ratio turn out when TGGTTTTTTG was run?
Answer: 0.996 ± 0.017

Question: TTAGCTACCT was tested. Which switch fluorescence ratio did it give?
Answer: 1.11 ± 0.19

Question: Which switch fluorescence ratio does the source give for CAAAATACGG here?
Answer: 1.07 ± 0.052

Question: For GTGCAGGGGC, which switch fluorescence ratio is on record?
Answer: 1.04 ± 0.019

Question: Which switch fluorescence ratio does the source give for TGAGGTATAT here?
Answer: 1.01 ± 0.015

Question: Which switch fluorescence ratio does the source give for TGATATTATT here?
Answer: 1.02 ± 0.015

Question: For ATTGAATTCG, which switch fluorescence ratio is on record?
Answer: 1 ± 0.011

Question: ATAAAGCGGC was tested. Which switch fluorescence ratio did it give?
Answer: 0.994 ± 0.047

Question: GAATTTCGGG was tested. Which switch fluorescence ratio did it give?
Answer: 0.996 ± 0.013

Question: Which switch fluorescence ratio does the source give for TTGGTATATT here?
Answer: 1.02 ± 0.016

Question: How did the switch fluorescence ratio turn out when AATTAAGGAT was run?
Answer: 0.975 ± 0.032

Question: With TTTGCAAGGA as the sequence, how does the switch fluorescence ratio read?
Answer: 1.02 ± 0.045

Question: For GGTGGCTAGC, which switch fluorescence ratio is on record?
Answer: 1 ± 0.044

Question: How did the switch fluorescence ratio turn out when GTCCAAGGGG was run?
Answer: 1.04 ± 0.032

Question: How did the switch fluorescence ratio turn out when GATTATTTAG was run?
Answer: 0.997 ± 0.019

Question: For GGTTTCATGA, which switch fluorescence ratio is on record?
Answer: 1.01 ± 0.026

Question: Which switch fluorescence ratio does the source give for TCTAACTTAG here?
Answer: 1.043 ± 0.0025

Question: TTTAAGCGTT was tested. Which switch fluorescence ratio did it give?
Answer: 1.054 ± 0.0066

Question: How did the switch fluorescence ratio turn out when TTCCTCAGAC was run?
Answer: 1.6 ± 0.87

Question: With GGGGGGACGA as the sequence, how does the switch fluorescence ratio read?
Answer: 1.01 ± 0.033

Question: Which switch fluorescence ratio does the source give for GCATGCGGTC here?
Answer: 1.01 ± 0.027

Question: How did the switch fluorescence ratio turn out when TGCAGGCTGC was run?
Answer: 0.989 ± 0.048

Question: With GCTGGTCGCC as the sequence, how does the switch fluorescence ratio read?
Answer: 1.005 ± 0.01

Question: Which switch fluorescence ratio does the source give for TCGAGAGTAG here?
Answer: 0.948 ± 0.016

Question: With TTTTGGCGTC as the sequence, how does the switch fluorescence ratio read?
Answer: 0.994 ± 0.023
